The source of these data is patent US20110207152A1.

In experiment [1] the target is F-actin prepared from rabbit muscle actin (rabbit) (UniProt P68135). The experiment is described as follows: cell-based or functional assay.
Experiment [2] deals with native human plasma gelsolin (human) (UniProt P06396). The experiment is described as follows: sandwich ELISA on human plasma; detection antibody GS2C4 (HRP), capture antibody GN3E9.
The target is the same in experiment [3]. The experiment can be described thus: sandwich ELISA on human plasma; detection antibody GS2C4 (HRP), capture antibody GF2D6. In general terms: In an ELISA, binding on a coated surface is turned into a signal by an enzyme label.
For experiment [4] the target is unchanged. The experiment can be described thus: sandwich ELISA on human plasma; detection antibody GS2C4 (HRP), capture antibody GC1C10.

native human plasma gelsolin (human), sequence (P06396 28-782 limits assumed): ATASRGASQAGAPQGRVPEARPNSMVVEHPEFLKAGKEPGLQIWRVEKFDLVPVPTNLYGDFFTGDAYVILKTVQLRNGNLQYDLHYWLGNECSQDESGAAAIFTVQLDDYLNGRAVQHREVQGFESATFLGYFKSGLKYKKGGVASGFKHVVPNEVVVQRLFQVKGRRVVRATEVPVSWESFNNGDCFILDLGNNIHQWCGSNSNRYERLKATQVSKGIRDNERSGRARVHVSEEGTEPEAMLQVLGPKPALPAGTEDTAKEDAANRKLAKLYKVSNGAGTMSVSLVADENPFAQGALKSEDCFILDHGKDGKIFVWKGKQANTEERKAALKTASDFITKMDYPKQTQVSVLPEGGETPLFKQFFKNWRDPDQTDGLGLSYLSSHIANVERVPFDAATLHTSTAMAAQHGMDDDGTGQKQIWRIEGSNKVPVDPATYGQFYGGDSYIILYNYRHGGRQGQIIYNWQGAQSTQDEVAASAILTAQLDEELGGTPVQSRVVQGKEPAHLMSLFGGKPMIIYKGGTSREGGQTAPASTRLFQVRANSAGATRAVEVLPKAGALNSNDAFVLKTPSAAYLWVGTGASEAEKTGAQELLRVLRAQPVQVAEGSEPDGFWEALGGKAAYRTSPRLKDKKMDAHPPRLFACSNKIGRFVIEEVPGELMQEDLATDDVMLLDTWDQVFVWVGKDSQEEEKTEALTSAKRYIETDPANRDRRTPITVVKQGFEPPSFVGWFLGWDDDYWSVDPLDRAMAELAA
native human plasma gelsolin, sequence (P06396 28-782 limits assumed): as above

On to “native human plasma gelsolin (from UniProt P06396 28-782)”, for which, in experiment [1], the % of F-actin at 0.1 mg/ml gelsolin (F-actin severing assay) turned out to be 35%, the % of F-actin at 0.5 mg/ml gelsolin (F-actin severing assay) came to 21% and the % of F-actin at 1.0 mg/ml gelsolin (F-actin severing assay) is 12%.
As for “commercial anti-human gelsolin antibody GS2C4 (Sigma Chemical Co.)”, the figures for the OD (sandwich ELISA pairing) in experiment [2], in experiment [3] and in experiment [4] were 0.025 OD, 0.013 OD and 0.014 OD, respectively.
